From patent publication US20250051467A1 (JIANGSU HENGRUI PHARMACEUTICALS, published 2025)

Assays:
h-FAP-His [1] = biological target: T1, h-FAP-His (human, UniProt Q12884 26-760); assay: ELISA, human FAP-His coated
T1 construct: range 26-760; Bought recombinant protein with a His tag; also called human FAP-His protein; FAP recombinant protein with a His tag
Procedure: A FAP recombinant protein with a His tag was directly used for coating. After the antibodies were added, a secondary antibody (an HRP-conjugated anti-human IgG antibody) and the HRP substrate TMB were added to measure the binding activity of the antibodies to the antigen. The assay comprises the following steps: A […] solution of human FAP-His protein was used to coat a 96-well microplate at 100 μL/well, and the plate was incubated overnight at 4° C. After a thorough wash, a blocking solution was added at 200 μL/well, and the plate was incubated at room temperature for 2 h. After a thorough wash, dilutions of test anti-FAP antibodies were added at 100 μL/well. The plate was incubated at room temperature for 1 h. After a thorough wash, a 1:20,000 dilution of an HRP-labeled goat anti-human IgG secondary antibody was added at 100 μL/well. The plate was incubated at room temperature for 1 h. After a thorough wash, TMB was added at 100 μL/well, and the plate was incubated in the dark for 15 min. 0.16 M sulfuric acid was added at 50 μL/well. The OD value at 450 nm was measured on a Thermo MultiSkanFc microplate reader, and the binding EC₅₀ values of the anti-FAP antibodies were calculated.

mouse FAP on CHOK1 cells [2] = biological target: T2, mouse FAP on CHOK1 cells (mouse, UniProt P97321 1-761); assay: FACS, percent of marked cells overexpressing mouse FAP, anti-hIgG Alexa Fluor-647 secondary antibody
T2 construct: whole, on cells; also called cell surface mouse FAP
Procedure: (§1) A FACS assay was used to measure the binding properties of anti-FAP antibodies on cells. The assay comprises the following steps: A CHO cell line overexpressing human FAP was constructed and plated (1E5/well). The test antibodies were added at 100 μL/well. The highest concentration was 100 nM. A 5-fold dilution was performed, yielding 8 concentrations in total. The plate was incubated at 4° C. for 1 h. Anti-hIgG Alexa Fluor-647 was added as a secondary antibody in the ratio of 1:500. The plate was incubated at 4° C. for 30 min, and a FACS assay was performed. Antibodies that bind to FAP can mark cells. The relation between the percentage of the marked cells that over-express human FAP among all cells and the antibody concentration is shown in FIG. 1. The relation between the percentage of the marked cells that over-express mouse FAP among all cells and the antibody concentration is shown in FIG. 2.

h-FAP-His [3] = biological target: T1, h-FAP-His; assay: SPR, antibody captured by anti-human IgG Fc, h-FAP-His analyte
Procedure: (§2) A CM5 sensor chip was used, and HBS-EP+buffer solution (10 mM HEPES, 150 mM NaCl, 3 mM EDTA, 0.05% surfactant P20) was used as the mobile phase. An anti-human IgG (Fc) antibody was made into a […] solution in a 10 mM sodium acetate buffer solution (pH 5.0) and immobilized by amino coupling. The test antibodies were diluted in HBS-EP+buffer solution and captured by the anti-human IgG (Fc) antibody on chip channels. h-FAP-His was dissolved in HBS-EP+buffer solution to prepare an analyte, and the analyte was serially diluted 2-fold. The diluted antibodies were passed through the experimental and reference channels at a flow rate of […], with 1 min of binding and 15 min of disassociation. 10 mM Glycine pH 1.5 was passed as a regeneration buffer solution for 30 s at a flow rate of […]. Data were analyzed. […] However, the binding affinities of the other anti-FAP antibodies obtained by screening at the same time in the present disclosure, such as Ab2, Ab4 and Ab5 (sequences not shown), for the antigen are lower than that of 28H1.

human FAP on CHO cells [4] = biological target: T3, human FAP on CHO cells (human, UniProt Q12884 1-760); assay: FACS, CHO cells overexpressing human FAP
T3 construct: whole, on cells; also called CHO cell line overexpressing human FAP; CHOK1/FAP
Procedure: as §1

h-FAP-His [5] = biological target: T1, h-FAP-His; assay: SPR, h-FAP-His analyte; lower end tied to Ab14 by Table 6
Procedure: as §2

human FAP on CHO cells [6] = biological target: T3, human FAP on CHO cells; assay: FACS, CHOK1 cells stably expressing human FAP
Procedure: (§3) In this experiment, the binding of the anti-FAP/CD40 bispecific antibodies to stably transfected strains of CHOK1 cells that highly express human FAP, cynomolgus monkey FAP and mouse FAP was measured by FACS.

[7] = biological target: T4, human FAP protein (Acro, FAP-H5244) (human, UniProt Q12884 26-760); assay: SPR (Biacore 8K), antibody captured by anti-human IgG Fc, human FAP analyte
T4 construct: Bought protein
Procedure: (§4) The affinities of the anti-FAP/CD40 bispecific antibodies for their antigens, the human FAP protein (Acro, FAP-H5244) and the human CD40 protein (Acro, CD0-H5228), were measured by SPR (GE Healthcare; Biacore 8K). A CM5 sensor chip was used, and HBS-EP+buffer solution (10 mM HEPES, 150 mM NaCl, 3 mM EDTA, 0.05% surfactant P20) was used as the mobile phase. An anti-human IgG (Fc) antibody was immobilized by amino coupling. The test antibodies were separately diluted in HBS-EP+buffer solution as ligands and captured by the anti-human IgG (Fc) antibody on chip channels. Antigenic proteins of different species were used as analytes.

mouse FAP on CHOK1 cells [8] = biological target: T2, mouse FAP on CHOK1 cells; assay: FACS, CHOK1 cells stably expressing mouse FAP
Procedure: as §3

[9] = biological target: T5, cynomolgus monkey FAP on CHOK1 cells (cynomolgus monkey); assay: FACS, CHOK1 cells stably expressing cynomolgus monkey FAP
T5 construct: whole, on cells
Procedure: as §3

h-CD40-His = biological target: T6, h-CD40-His (human, UniProt P25942 21-193); assay: SPR (Biacore 8K), antibody captured by anti-human IgG Fc, human CD40 analyte
T6 construct: range 21-193; Bought His-tagged recombinant protein; also called human CD40 protein (Acro, CD0-H5228); human CD40
Procedure: as §4

[10] = biological target: T7, human CD40 on cells (Raji cells; HEK-Blue CD40L cells; human dendritic cells) (human, UniProt P25942 21-277); assay: flow cytometry on immature human dendritic cells (CD40)
T7 construct: whole, on cells; One entry for untagged full-length human CD40 on cells; also called Raji cell surface human CD40; human cell surface CD40 antigen

[11] = biological target: T7, human CD40 on cells (Raji cells; …); assay: FACS, HEK-Blue CD40L cells expressing human CD40
Procedure: (§5) The binding of the bispecific antibodies to cell surface CD40 was measured by FACS, including HEK-Blue™CD40L cells highly expressing human CD40 (Invivogen, Cat #hkb-cd40), and HEK293 cells that were transiently transfected with cynomolgus monkey CD40 plasmids (Sino Biological, cat #CG90970-UT) and thus made to highly express cynomolgus monkey CD40. […] See FIGS. 9A, 9B and 11 and Table 21 for details.

[12] = biological target: T8, cynomolgus monkey CD40 on HEK293 cells (cynomolgus monkey, UniProt G7PG38 21-278); assay: FACS, HEK293 cells transiently expressing cynomolgus monkey CD40
T8 construct: whole, on cells
Procedure: as §5

T6 sequence (P25942 21-193 limits assumed): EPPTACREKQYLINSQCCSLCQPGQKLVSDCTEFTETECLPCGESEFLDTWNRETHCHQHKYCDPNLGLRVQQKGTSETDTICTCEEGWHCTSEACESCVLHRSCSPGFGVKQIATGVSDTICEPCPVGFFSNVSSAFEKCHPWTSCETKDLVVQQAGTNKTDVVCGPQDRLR
T2 sequence (P97321 whole entry): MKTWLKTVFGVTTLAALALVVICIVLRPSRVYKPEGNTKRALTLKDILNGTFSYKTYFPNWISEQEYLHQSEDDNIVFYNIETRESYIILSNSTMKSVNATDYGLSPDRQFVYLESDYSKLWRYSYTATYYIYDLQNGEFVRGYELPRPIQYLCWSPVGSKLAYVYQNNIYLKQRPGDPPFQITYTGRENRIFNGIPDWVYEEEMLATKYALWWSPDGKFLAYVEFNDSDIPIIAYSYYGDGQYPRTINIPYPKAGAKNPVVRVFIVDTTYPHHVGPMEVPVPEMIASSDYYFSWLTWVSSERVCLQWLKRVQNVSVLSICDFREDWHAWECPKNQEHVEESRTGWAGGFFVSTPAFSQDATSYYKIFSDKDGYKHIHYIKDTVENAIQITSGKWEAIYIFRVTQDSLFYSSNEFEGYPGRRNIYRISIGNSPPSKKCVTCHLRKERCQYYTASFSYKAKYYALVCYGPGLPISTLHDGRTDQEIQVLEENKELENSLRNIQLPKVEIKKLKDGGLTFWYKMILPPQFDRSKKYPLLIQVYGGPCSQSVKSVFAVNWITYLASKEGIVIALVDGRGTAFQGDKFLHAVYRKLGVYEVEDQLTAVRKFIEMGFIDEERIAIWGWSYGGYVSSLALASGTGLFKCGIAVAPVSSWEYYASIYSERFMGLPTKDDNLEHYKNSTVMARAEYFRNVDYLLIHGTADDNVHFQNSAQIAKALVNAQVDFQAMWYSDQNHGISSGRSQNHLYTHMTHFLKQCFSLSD
T7 sequence (P25942 21-277): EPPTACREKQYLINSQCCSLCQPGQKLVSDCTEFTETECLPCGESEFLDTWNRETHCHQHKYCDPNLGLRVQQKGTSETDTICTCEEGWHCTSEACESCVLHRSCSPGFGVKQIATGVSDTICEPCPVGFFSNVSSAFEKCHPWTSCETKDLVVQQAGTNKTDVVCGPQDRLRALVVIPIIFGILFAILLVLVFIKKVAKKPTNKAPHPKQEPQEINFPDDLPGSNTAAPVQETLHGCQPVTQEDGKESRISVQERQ

EC50 (h-FAP-His [1]) [ng/mL] | EC50 (read off the curve) (mouse FAP on CHOK1 cells [2]) [ng/mL] | Kd (h-FAP-His [3]) [nM] | Ratio of KD of 28H1 to KD of test antibody (h-FAP-His [3]) | Ratio of Kd of 28H1 to Kd of test antibody (h-FAP-His [3]) | koff (h-FAP-His [3]) [s⁻¹] | kon (h-FAP-His [3]) [M⁻¹ s⁻¹] | EC50 (human FAP on CHO cells [4]) [ng/mL] | EC50 (human FAP on CHO cells [6]) [nM] | Emax (MFI) (human FAP on CHO cells [6]) | Kd [7] [nM] | koff [7] [s⁻¹] | kon [7] [M⁻¹ s⁻¹] | EC50 (mouse FAP on CHOK1 cells [8]) [nM] | Emax (MFI) (mouse FAP on CHOK1 cells [8]) | EC50 [9] [nM] | Emax (MFI) [9] [MFI] | Kd (h-CD40-His) [nM] | koff (h-CD40-His) [s⁻¹] | kon (h-CD40-His) [M⁻¹ s⁻¹] | Binder | also measured
417000 | ~8 | 0.365 | 3.6 | 2.1 | 0.000121 | 332000 | 0.474 |  |  |  |  |  |  |  |  |  |  |  |  | Ab14 (antibody, human IgG1, kappa, L234A L235A, V domains shown, Fully human, IgG1 / kappa; also called anti-FAP antibody Ab14; Ab114) VH: QVQLQQSGVEVKKPGASVTVSCRASGYSFADHFIHWVRQAPGQGFQWMGWINPNRGVTHHAQDFQGRVAMTRDMSTDTVYMELTSLRSDDTAVYYCARDASLTARPYYFYGFDVWGQGTLVTVSS VL: EIVLTQSPSSVSASVGDRVTITCRASQGISSWLAWYQQKPGKAPKLLIYAASSLQSGVPSRFSGSGSGTDFTLTISSLQPEDFATYYCQQANSFPLTFGGGTKVEIKR | fold affinity over 28H1 (h-FAP-His [5]): 3 to 6 times
 |  |  |  |  |  |  |  | 2.51 | 65200 | 0.405 | 8.22e-05 | 203000 | 0.79 | 12600 | 1.09 | 28200 | 141 | 0.0294 | 209000 | Ab10-A297V3-2 (bispecific antibody, human IgG1, kappa, L234A L235A, Ab10 IgG1 (L234A/L235A) with one A297V3 VHH on each heavy chain C-terminus; divalent for CD40; also called Ab0-A297V3-2) heavy: not shown light: DIQMTQSPSSVSASVGDRVTITCRASQGISSWLAWYQQKPGKAPKLLIYAASSLQSGVPSRFSGSGSGTDFTLTISSLQPEDFATYYCQQANSFPPAFGQGTKVEIKRTVAAPSVFIFPPSDEQLKSGTASVVCLLNNFYPREAKVQWKVDNALQSGNSQESVTEQDSKDSTYSLSSTLTLSKADYEKHKVYACEVTHQGLSSPVTKSFNRGEC | EC50 (read off the curve) [10]: ~4 nM; EC50 [11]: 1.66 nM; Emax (MFI) [11]: 6250 MFI; EC50 [12]: 1.31 nM; Emax (MFI) [12]: 4930 MFI
 |  |  |  |  |  |  |  | 1.57 | 53800 | 0.378 | 6.96e-05 | 184000 | 1.65 | 12700 | 1.35 | 32500 | 262 | 0.137 | 524000 | Ab10-A297V3-4 (bispecific antibody, human IgG1, kappa, L234A L235A, Ab10 IgG1 (L234A/L235A) with two A297V3 VHHs in tandem on each heavy chain C-terminus; tetravalent for CD40; also called Ab0-A297V3-4) heavy: not shown light: DIQMTQSPSSVSASVGDRVTITCRASQGISSWLAWYQQKPGKAPKLLIYAASSLQSGVPSRFSGSGSGTDFTLTISSLQPEDFATYYCQQANSFPPAFGQGTKVEIKRTVAAPSVFIFPPSDEQLKSGTASVVCLLNNFYPREAKVQWKVDNALQSGNSQESVTEQDSKDSTYSLSSTLTLSKADYEKHKVYACEVTHQGLSSPVTKSFNRGEC | EC50 (read off the curve) [10]: ~1 nM; EC50 [11]: 0.94 nM; Emax (MFI) [11]: 5080 MFI; EC50 [12]: 0.88 nM; Emax (MFI) [12]: 5120 MFI

The remaining lines, values behind:

Binder | EC50 (h-FAP-His [1]) [ng/mL] | EC50 (read off the curve) (mouse FAP on CHOK1 cells [2]) [ng/mL] | Kd (h-FAP-His [3]) [nM] | Ratio of KD of 28H1 to KD of test antibody (h-FAP-His [3]) | Ratio of Kd of 28H1 to Kd of test antibody (h-FAP-His [3]) | koff (h-FAP-His [3]) [s⁻¹] | kon (h-FAP-His [3]) [M⁻¹ s⁻¹] | EC50 (human FAP on CHO cells [4]) [ng/mL] | EC50 (human FAP on CHO cells [6]) [nM] | Emax (MFI) (human FAP on CHO cells [6]) | Kd [7] [nM] | koff [7] [s⁻¹] | kon [7] [M⁻¹ s⁻¹] | EC50 (mouse FAP on CHOK1 cells [8]) [nM] | Emax (MFI) (mouse FAP on CHOK1 cells [8]) | EC50 [9] [nM] | Emax (MFI) [9] [MFI] | Kd (h-CD40-His) [nM] | koff (h-CD40-His) [s⁻¹] | kon (h-CD40-His) [M⁻¹ s⁻¹] | also measured
Ab9 (antibody, human IgG1, kappa, L234A L235A, V domains shown, Fully human, IgG1 / kappa; also called anti-FAP antibody Ab9) VH: QMQLVQSGAEVKKPGASVTVSCRASGYSFADHFIHWVRQAPGQGFQWMGWINPNRGVTHHAQDFQGRVAMTRDMSTDTVYMELTSLRSDDTAVYYCARDESLTARPYYFYGFDVWGQGTLVTVSS VL: DIQMTQSPSSVSASVGDRVTITCRASQGISSWLAWYQQKPGKAPKLLIYAASSLQSGVPSRFSGSGSGTDFTLTISSLQPEDFATYYCQQANSFPPAFGQGTKVEIKR | 101000 | ~5 | 0.306 | 4.3 | 3.54 | 7.19e-05 | 235000 | 0.368 |  |  |  |  |  |  |  |  |  |  |  |  | 
Ab10 (antibody, human IgG1, kappa, L234A L235A, V domains shown, Fully human, IgG1 / kappa; also called anti-FAP antibody Ab10; Ab110) VH: QVQLQQSGVEVKKPGASVTVSCRASGYSFADHFIHWVRQAPGQGFQWMGWINPNRGVTHHAQDFQGRVAMTRDMSTDTVYMELTSLRSDDTAVYYCARDASLTARPYYFYGFDVWGQGTLVTVSS VL: DIQMTQSPSSVSASVGDRVTITCRASQGISSWLAWYQQKPGKAPKLLIYAASSLQSGVPSRFSGSGSGTDFTLTISSLQPEDFATYYCQQANSFPPAFGQGTKVEIKR | 92000 | ~2 | 0.245 | 5.3 | 3.5 | 7.28e-05 | 297000 | 0.432 | 1.41 | 72000 | 0.34 | 7.39e-05 | 217000 | 10.4 | 26400 | 7.34 | 64600 |  |  |  | 
